Values belong to the molecule of their own block, whether it stands above or below them.
Legend:
[1] = biological target: Dscam 7.13.25 isoform; experiment: AlphaScreen or HTRF
[2] = biological target: T1, Ptp10D-AP (Drosophila, UniProt P35992 43-1197); experiment: AlphaScreen or HTRF
T1 sequence (looked up): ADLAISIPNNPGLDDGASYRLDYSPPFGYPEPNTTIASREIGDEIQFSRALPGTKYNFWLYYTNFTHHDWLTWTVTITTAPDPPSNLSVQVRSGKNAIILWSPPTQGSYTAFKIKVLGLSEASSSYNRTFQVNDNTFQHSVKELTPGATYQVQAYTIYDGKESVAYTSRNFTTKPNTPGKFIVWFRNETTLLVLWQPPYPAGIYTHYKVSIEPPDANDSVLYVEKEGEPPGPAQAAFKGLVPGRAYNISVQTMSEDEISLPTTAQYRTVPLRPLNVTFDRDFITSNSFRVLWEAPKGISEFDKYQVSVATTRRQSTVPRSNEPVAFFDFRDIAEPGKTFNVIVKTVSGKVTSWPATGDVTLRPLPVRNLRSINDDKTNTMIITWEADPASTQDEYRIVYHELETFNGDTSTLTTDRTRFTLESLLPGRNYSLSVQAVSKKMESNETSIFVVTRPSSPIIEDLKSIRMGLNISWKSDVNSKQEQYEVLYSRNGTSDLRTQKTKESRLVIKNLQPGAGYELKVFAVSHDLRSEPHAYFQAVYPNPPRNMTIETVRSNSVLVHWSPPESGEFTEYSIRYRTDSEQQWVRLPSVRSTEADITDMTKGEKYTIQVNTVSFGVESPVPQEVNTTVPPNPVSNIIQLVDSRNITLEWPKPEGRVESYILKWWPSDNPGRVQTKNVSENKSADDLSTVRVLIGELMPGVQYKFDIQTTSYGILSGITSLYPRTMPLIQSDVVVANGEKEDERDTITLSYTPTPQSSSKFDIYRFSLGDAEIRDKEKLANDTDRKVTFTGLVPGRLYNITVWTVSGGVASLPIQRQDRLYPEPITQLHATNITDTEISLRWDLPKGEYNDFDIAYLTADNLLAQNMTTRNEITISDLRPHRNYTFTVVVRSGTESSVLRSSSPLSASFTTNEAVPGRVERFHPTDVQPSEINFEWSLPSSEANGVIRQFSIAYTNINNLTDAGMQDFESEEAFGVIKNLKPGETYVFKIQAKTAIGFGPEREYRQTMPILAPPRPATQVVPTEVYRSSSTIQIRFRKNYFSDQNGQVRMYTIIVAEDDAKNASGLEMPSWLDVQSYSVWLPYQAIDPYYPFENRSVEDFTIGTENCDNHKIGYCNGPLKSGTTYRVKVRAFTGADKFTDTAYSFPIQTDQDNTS

- fold signal of homophilic binding over heterophilic binding of 7.13.25 to 7.8.25 [1]: 178 fold
Molecule: Dscam 7.13.25 isoform (natural protein)

- signal-to-background ratio (Sas-Fc::10D-AP vs. Sas-Fc::69D-AP or Sas-Fc::blank) [2]: ~6 fold
B1: Sas-Fc (Fc fusion, Drosophila, UniProt Q04164 42-1635, looked up)
chain: APAGEDAAATTMPPLDTTTDAPDAVAATTTPATTAAEQSSSISSITTEAADGSTTSTTTTTEAANKSNATETDFTTNVPVASSLPEETSVRSTSIEPITSTEPTTTPRQETEGPDQHMVFSNTEPDQSHIQHIPLRDEHAESSGADDATTEMQRQREQDQQQNELNQISNEQDDVVKDLNNFRHPATLITASNSNSEENVEIESDKQVETTTTAVPAAATSTSTEATGTPPTGTPATSTSTVPNEREEDPYHVHILSENHDRLAEHEDYQMLSTSTEESSTTSTTSTTNSTTESGIVAGIVVSQENKATAEPSTATESTSISTSTTTAATAATSTTSRARAMHMNDPEDEAATTIMPDSESVPVINIVEGQHMLQQEDQKDEEEEGVVKESESSSTTEASTTTTEPSPFVAFAGEGRSAGGGNDIELFLHHNGSTHEQLMDLSDVSMDGDQNEGSSKTESSTTSTTTTTAQPETEMPKIVEITASGDTMQRECLANNKSYKHGELMERDCDERCTCNRGDWMCEPRCRGLSYPRGSQRSMANPNCLEKMVEEDECCRVMECSEPQLEPTVVATEGAAPSTNGTGESAVTLPTTDDEATPKPRTDCHYNSGVYKFRERLEIGCEQICHCAEGGVMDCRPRCPERNHTRLDKCVYVKDPKDVCCQLELCDVTLDDHEQQPTPLQSNNNEDPEEIDPFRFQEQARDAGGAKPTCTFKGAEYDVGQQFRDGCDQLCICNEQGIHCAKLECPSNFGLDVQDPHCIRWEPVPADFKPSPPNCCPESMRCVDNGTCSYQGVQIENWSPVPANLTGCDQHCYCENGRVECRAACPPVPALPPADLPCHPALARLLPIPDDECCKHWMCAPQIPKIGGAGQDEETEATSTHSSIPANETTTTTATANKSTSIPSKVPQIKKDEEKRPPASGAFYPTLDGKPPKSIGGLGIFEKPEKPEKAHKKVQHQQQQHQQQEQQEQQQHQNDVIFDGDRTEEQEEPLPPNGGFVPFQFGQQHPHQPHLGPYGFYNPVKPVYEDYNPYEPYDINPNGTPQGKPPPVPTSQSDLFNILGAEQPGHPVHPGHGGPPRIHPGQTQKDNHNLGPQVRIEQILQHLQQTVPGGPPPPPPHQQHQSLTPQLHPQQQQISQQHPGHYVPIVHSGVPPPPPGHGIAIVDGQTVAYESYPVIPGLGVPQHHPQQHQTTPQQHLQQTILPSSSTTSGLSTQASEHSLHQNQGKLAKQQQSGANNLQPDIEVHTLEAIDPRSIRIVFTVPQVYVNLHGRVELRYSNGPSNDTSTWEQQIFAPPEDLIATSQMEFDLPSLEPNSLYKVKITLILRDLNSQPTSSIYTVKTPPERTITPPPPFPDYRPDFQDIFKNVEDPELTVSETNASWLQLTWKKLGDDQMEYVDGVQLRYKELTGMIYSSTPLIHRTLTSYTIQNLQPDTGYEIGLYYIPLAGHGAELRAGHMIKVRTAQKVDVYGFDVTVNVTKVKTQSVEISWNGVPYPEDKFVHIYRAIYQSDAGKEDSSVFKVAKRDSTTGTLIMDLKPGTKYRLWLEMYLTNGNTKKSNVVNFITKPGGPATPGKTGKLLTAGTDQPVGDYYGPL

Reference: paper PMC3683152 (Neuron, 2013)
